What was measured:
[1] = molecular target: Acidovorax facilis CCTCC NO: M 209044 nitrilase AcN-F168V (SEQ ID No. 2) mutant G180D/A205C, SEQ ID No. 10 (Acidovorax facilis, UniProt Q1W2L4); assay: Kinetic parameters of the nitrilase double mutant G180D/A205C; type: biochemical; conditions: pH 7.0, 20 mM phosphate buffer, 45° C.
Protocol: (§1) The kinetic parameters of the purified protein in example 3 were determined, using 1-cyanocyclohexylacetonitrile as the substrate and the pure enzyme solutions of AcN-F168V, G180D, A205C, G180F, and G180D/A205C as the catalyst.
(§2) 10 mL of the reaction system was as follows: the purified enzyme solution (165 U/g) was diluted 10 times with a pH 7.0, 20 mM phosphate buffer and the final concentration of the purified nitrilase was 0.2 mg/mL. The resulting enzyme solution was put into a reaction container, added with the substrate at final concentrations of 6.75-40.49 mM (6.75, 13.50, 20.24, 26.99, 33.74 and 40.49 mM, respectively) and added with a pH 7.0, 20 mM phosphate buffer as the reaction medium up to 10 mL, the reaction solution was reacted at 45° C. and 600 rpm for 5 min, 500 μL of the sample was taken out, 500 μL of 2 M HCl was added to terminate the reaction, and the concentration of 1-cyanocyclohexyl acetic acid in the reaction solution was determined by HPLC (The detection and analysis conditions are the same as that in example 4).
(§3) Collected test data was used to conduct nonlinear fitting by Origin, thereby obtaining the Km value and Kcat value of the nitrilase E. coli BL21 (DE3)/pET-28b (+)-AcN-F168V and its combinatorial mutants E. coli BL21 (DE3)/pET-28b (+)-AcN-G180D, E. coli BL21 (DE3)/pET-28b (+)-AcN-G180F, E. coli BL21 (DE3)/pET-28b (+)-AcN-A205C and E. coli BL21 (DE3)/pET-28b (+)-AcN-G180D/A205C as shown in table 2.

N#CCC1(C#N)CCCCC1 [2] = assay: Kinetic parameters of the nitrilase mutant A205C; type: biochemical, Acidovorax facilis CCTCC NO: M 209044; conditions: other: A205C, pH 7.0, 20 mM phosphate buffer, 45° C., 6.75-40.49 mM substrate
Protocol: as §1, §2, §3

N#CCC1(C#N)CCCCC1 [3] = assay: Kinetic parameters of the nitrilase mutant G180D; type: biochemical, Acidovorax facilis CCTCC NO: M 209044; conditions: other: G180D, pH 7.0, 20 mM phosphate buffer, 45° C., 6.75-40.49 mM substrate
Protocol: as §1, §2, §3

N#CCC1(C#N)CCCCC1 [4] = assay: Kinetic parameters of the nitrilase mutant G180F; type: biochemical, Acidovorax facilis CCTCC NO: M 209044; conditions: other: G180F, pH 7.0, 20 mM phosphate buffer, 45° C., 6.75-40.49 mM substrate
Protocol: as §1, §2, §3

N#CCC1(C#N)CCCCC1 [5] = assay: Kinetic parameters of the nitrilase, purified AcN-F168V (parent); type: biochemical, Acidovorax facilis CCTCC NO: M 209044; conditions: other: AcN-F168V, pH 7.0, 20 mM phosphate buffer, 45° C., 6.75-40.49 mM substrate
Protocol: as §1, §2, §3

**Q.** Which results are given for `N#CCC1(C#N)CCCCC1` [1-cyanocyclohexylacetonitrile]?
**A.** Kcat [1]: 24139 s⁻¹; Kcat/Km [1]: 1228.45 mM⁻¹ h⁻¹; Vmax [1]: 4.78 ± 0.73 mmolmg^−1min^−1; Km ([1]; 6.75-40.49 mM substrate): 19.7 ± 7.4 mM

**Q.** Which results are given for “Acidovorax facilis CCTCC NO: M 209044 nitrilase AcN-F168V (SEQ ID No. 2) mutant A205C, SEQ ID No. 8 (Acidovorax facilis; A205C/F168V)”?
**A.** Km (N#CCC1(C#N)CCCCC1 [2]): 3.40 ± 0.78 mM; Vmax (N#CCC1(C#N)CCCCC1 [2]): 1630 µmol/min/mg; kcat (N#CCC1(C#N)CCCCC1 [2]): 8317 s⁻¹

**Q.** Which Km (N#CCC1(C#N)CCCCC1 [3]) does the source give for “Acidovorax facilis CCTCC NO: M 209044 nitrilase AcN-F168V (SEQ ID No. 2) mutant G180D, SEQ ID No. 4 (Acidovorax facilis; F168V/G180D)” here?
**A.** Its Km is 3.21 ± 1.41 mM.

**Q.** What about the Vmax (N#CCC1(C#N)CCCCC1 [3]) of the same compound?
**A.** The Vmax was 1980 µmol/min/mg.

**Q.** And the kcat (N#CCC1(C#N)CCCCC1 [3])?
**A.** The kcat was 6624 s⁻¹.

**Q.** How did the Km (N#CCC1(C#N)CCCCC1 [4]) turn out when “Acidovorax facilis CCTCC NO: M 209044 nitrilase AcN-F168V (SEQ ID No. 2) mutant G180F, SEQ ID No. 6 (Acidovorax facilis; F168V/G180F)” was run?
**A.** Its Km is 5.88 ± 1.58 mM.

**Q.** What about the Vmax (N#CCC1(C#N)CCCCC1 [4]) of the same compound?
**A.** Its Vmax is 2350 µmol/min/mg.

**Q.** What about the kcat (N#CCC1(C#N)CCCCC1 [4]) of the same compound?
**A.** The kcat was 7612 s⁻¹.

**Q.** With “Acidovorax facilis CCTCC NO: M 209044 nitrilase AcN-F168V, SEQ ID No. 2 (Acidovorax facilis; F168V)” as the compound, how does the Km (N#CCC1(C#N)CCCCC1 [5]) read?
**A.** Its Km is 16.25 ± 5.37 mM.

**Q.** And the Vmax (N#CCC1(C#N)CCCCC1 [5])?
**A.** Its Vmax is 1530 µmol/min/mg.

**Q.** What about the kcat (N#CCC1(C#N)CCCCC1 [5]) of the same compound?
**A.** The kcat was 5573 s⁻¹.

Source: patent US12428656B2, “Nitrilase mutant and application thereof in the synthesis of 1-cyanocyclohexyl acetic acid” (priority 2020, dated 2025)
